Laboratory results taken from US12269859B2, “Synthetic immune receptors and methods of use thereof” (Angeles Therapeutics, Inc., priority 2016, dated 2025).

Tested on: target antigen-expressing cell line
Assay: Jurkat NFAT-GFP assay, coculture with target cell lines expressing the respective target antigen (summary Table 10A)
Format: cell-based, human
Set-up: key: The signs +/−, +, 2+ etc. after the name of the cell lines indicate the relative degree of positivity on the Jurkat-NFAT-GFP assay as measured by the % GFP positive cells; +: relative degree of positivity on the Jurkat-NFAT-GFP assay as measured by the % GFP positive cells; 2+: relative degree of positivity on the Jurkat-NFAT-GFP assay as measured by the % GFP positive cells
In short: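 Stable SIR expression in Jurkat-NFAT-GFP cells by lentiviral transfer and puromycin selection; coculture with target cells (E:T approximately 1:2) for 4 to 18 hours; flow cytometric measurement of NFAT-driven GFP; scoring as positive when % GFP-positive cells exceeds that of parental reporter cells.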

B1: 092216-G01 (protein)
chain: MALPVTALLLPLALLLHAARPLEGKPIPNPLLGLDSTGSGEDLKNVFPPEVAVFEPSKAEIAHTQKATLVCLATGFYPDHVELSWWVNGKEVHSGVCTDPQPLKEQPALNDSRYCLSSRLRVSATFWQNPRNHFRCQVQFYGLSENDEWTQDRAKPVTQIVSAEAWGRADCGITSASYHQGVLSATILYEILLGKATLYAVLVSALVLMAMVKRKDSRGRAKRSGSGATNFSLLKQAGDVEENPGPTSTMALPVTALLLPLALLLHAARPDIQMTQSPSSLSASLGERVSLTCRATQELSGYLSWLQQKPDGTIKRLIYAASTLDSGVPKRFSGNRSGSDYSLTISSLESEDFADYYCLQYAIYPYTFGGGTKLEIKGGGGSGGGGSGGGGSEVQLQQSGPELVKPGASVKMSCKASGYTFTSYFIHWVKQKPGQGLEWIGFINPYNDGSKYNEKFKGKATLTSDKSSSTAYMELSSLTSEDSAVYYCTRDDGYYGYAMDYWGQGTSVTVSSTREQKLISEEDGSGIQNPDPAVYQLRDSKSSDKSVCLFTDFDSQTNVSQSKDSDVYITDKCVLDMRSMDFKSNSAVAWSNKSDFACANAFNNSIIPEDTFFPSSDVPCDVKLVEKSFETDTNLNFQNLSVIGFRILLLKVAGFNLLMTLRLWSSRAKRSGSGVKQTLNFDLLKLAGDVESNPGPSRGHMTEYKPTVRLATRDDVPRAVRTLAAAFADYPATRHTVDPDRHIERVTELQELFLTRVGLDIGKVWVADDGAAVAVWTTPESVEAGAVFAEIGPRMAELSGSRLAAQQQMEGLLAPHRPKEPAWFLATVGVSPDHQGKGLGSAVVLPGVEAAERAGVPAFLETSAPRNLPFYERLGFTVTADVEVPEGPRTWCMTRKPGA
modifications: Synthetic Immune Receptor (SIR)
NFAT-GFP ASSAY Positive Cell lines (coculture with HL60 cells): HL60 (+/−)

B2: 041416-P02 (protein)
chain: MALPVTALLLPLALLLHAARPDIVMTQSQKSMSTSVGDRVSITCKASQDVITGVAWYQQKPGQSPKLLIYSASYRYTGVPDRFTGSGSGTDFTFTISNVQAEDLAVYYCQQHYSTPLTFGAGTKLELKLEGKPIPNPLLGLDSTGSGEDLKNVFPPEVAVFEPSKAEIAHTQKATLVCLATGFYPDHVELSWWVNGKEVHSGVCTDPQPLKEQPALNDSRYCLSSRLRVSATFWQNPRNHFRCQVQFYGLSENDEWTQDRAKPVTQIVSAEAWGRADCGITSASYHQGVLSATILYEILLGKATLYAVLVSALVLMAMVKRKDSRGRAKRSGSGATNFSLLKQAGDVEENPGPTSMDWIWRILFLVGAATGAHSFEQVQLQQPGAELVRPGASVKLSCKASGYSFTTYWMNWVKQRPGQGLEWIGMIHPSDSETRLNQKFKDKATLTVDKSSSTAYMQLSSPTSEDSAVYYCARSTMIATRAMDYWGQGTSVTVSSTREQKLISEEDGSGTPFPSLAPPIMLLVDGKQQMVVVCLVLDVAPPGLDSPIWFSAGNGSALDAFTYGPSPATDGTWTNLAHLSLPSEELASWEPLVCHTGPGAEGHSRSTQPMHLSGEASTARTCPQEPLRGTPGGALWLGVLRLLLFKLLLFDLLLTCSCLCDPAGPLPSPATTTRLRALGSHRLHPATETGGREATSSPRPQPRDRRWGDTPPGRKPGSPVRAKRSGSGVKQTLNFDLLKLAGDVESNPGPSRGHMTEYKPTVRLATRDDVPRAVRTLAAAFADYPATRHTVDPDRHIERVTELQELFLTRVGLDIGKVWVADDGAAVAVWTTPESVEAGAVFAEIGPRMAELSGSRLAAQQQMEGLLAPHRPKEPAWFLATVGVSPDHQGKGLGSAVVLPGVEAAERAGVPAFLETSAPRNLPFYERLGFTVTADVEVPEGPRTWCMTRKPGA
modifications: Polynucleotide encoding a Synthetic Immune Receptor (SIR)
NFAT-GFP ASSAY Positive Cell lines (coculture with L363 cells): (+/−) | NFAT-GFP ASSAY Positive Cell lines (coculture with U266 cells): U266 (+/−), L363

B3: 060616-K04 (protein)
chain: MALPVTALLLPLALLLHAARPDIQMTQSPSSLSASVGDRVTITCKASQDVGIAVAWYQQKPGKVPKLLIYWASTRHTGVPDRFSGSGSGTDFTLTISSLQPEDVATYYCQQYSSYPYTFGQGTKVEIKLEGKPIPNPLLGLDSTGSGEDLKNVFPPEVAVFEPSKAEIAHTQKATLVCLATGFYPDHVELSWWVNGKEVHSGVCTDPQPLKEQPALNDSRYCLSSRLRVSATFWQNPRNHFRCQVQFYGLSENDEWTQDRAKPVTQIVSAEAWGRADCGITSASYHQGVLSATILYEILLGKATLYAVLVSALVLMAMVKRKDSRGRAKRSGSGATNFSLLKQAGDVEENPGPTSMDWIWRILFLVGAATGAHSFEEVQLVESGGGLVQPGGSLRLSCAASGFDFSRYWMSWVRQAPGKGLEWIGEINPDSSTINYAPSLKDKFIISRDNAKNSLYLQMNSLRAEDTAVYYCARPDGNYWYFDVWGQGTLVTVSSTREQKLISEEDGSGIQNPDPAVYQLRDSKSSDKSVCLFTDFDSQTNVSQSKDSDVYITDKCVLDMRSMDFKSNSAVAWSNKSDFACANAFNNSIIPEDTFFPSSDVPCDVKLVEKSFETDTNLNFQNLSVIGFRILLLKVAGFNLLMTLRLWSSRAKRSGSGVKQTLNFDLLKLAGDVESNPGPSRGHMTEYKPTVRLATRDDVPRAVRTLAAAFADYPATRHTVDPDRHIERVTELQELFLTRVGLDIGKVWVADDGAAVAVWTTPESVEAGAVFAEIGPRMAELSGSRLAAQQQMEGLLAPHRPKEPAWFLATVGVSPDHQGKGLGSAVVLPGVEAAERAGVPAFLETSAPRNLPFYERLGFTVTADVEVPEGPRTWCMTRKPGA
modifications: Synthetic Immune Receptor (SIR)
NFAT-GFP ASSAY Positive Cell lines (coculture with L363 cells): L363 (2+)

B4: 091216-L03 (protein)
chain: MALPVTALLLPLALLLHAARPLEGKPIPNPLLGLDSTGSGEDLKNVFPPEVAVFEPSKAEIAHTQKATLVCLATGFYPDHVELSWWVNGKEVHSGVCTDPQPLKEQPALNDSRYCLSSRLRVSATFWQNPRNHFRCQVQFYGLSENDEWTQDRAKPVTQIVSAEAWGRADCGITSASYHQGVLSATILYEILLGKATLYAVLVSALVLMAMVKRKDSRGRAKRSGSGATNFSLLKQAGDVEENPGPTSTMALPVTALLLPLALLLHAARPDIQMTQSPSSLSASVGDRVTITCKASQDVGIAVAWYQQKPGKVPKLLIYWASTRHTGVPDRFSGSGSGTDFTLTISSLQPEDVATYYCQQYSSYPYTFGQGTKVEIKGGGGSGGGGSGGGGSEVQLVESGGGLVQPGGSLRLSCAASGFDFSRYWMSWVRQAPGKGLEWIGEINPDSSTINYAPSLKDKFIISRDNAKNSLYLQMNSLRAEDTAVYYCARPDGNYWYFDVWGQGTLVTVSSTREQKLISEEDGSGIQNPDPAVYQLRDSKSSDKSVCLFTDFDSQTNVSQSKDSDVYITDKCVLDMRSMDFKSNSAVAWSNKSDFACANAFNNSIIPEDTFFPSSDVPCDVKLVEKSFETDTNLNFQNLSVIGFRILLLKVAGFNLLMTLRLWSSRAKRSGSGVKQTLNFDLLKLAGDVESNPGPSRGHMTEYKPTVRLATRDDVPRAVRTLAAAFADYPATRHTVDPDRHIERVTELQELFLTRVGLDIGKVWVADDGAAVAVWTTPESVEAGAVFAEIGPRMAELSGSRLAAQQQMEGLLAPHRPKEPAWFLATVGVSPDHQGKGLGSAVVLPGVEAAERAGVPAFLETSAPRNLPFYERLGFTVTADVEVPEGPRTWCMTRKPGA
modifications: Synthetic Immune Receptor (SIR)
NFAT-GFP ASSAY Positive Cell lines (coculture with L363 cells): U266 (+), L363 (+) | NFAT-GFP ASSAY Positive Cell lines (coculture with U266 cells): U266 (+), L363 (+)

B5: 090116-L01 (protein)
chain: MALPVTALLLPLALLLHAARPLEGKPIPNPLLGLDSTGSGEDLKNVFPPEVAVFEPSKAEIAHTQKATLVCLATGFYPDHVELSWWVNGKEVHSGVCTDPQPLKEQPALNDSRYCLSSRLRVSATFWQNPRNHFRCQVQFYGLSENDEWTQDRAKPVTQIVSAEAWGRADCGITSASYHQGVLSATILYEILLGKATLYAVLVSALVLMAMVKRKDSRGRAKRSGSGATNFSLLKQAGDVEENPGPTSMALPVTALLLPLALLLHAARPDIVMTQSQKSMSTSVGDRVSITCKASQDVITGVAWYQQKPGQSPKLLIYSASYRYTGVPDRFTGSGSGTDFTFTISNVQAEDLAVYYCQQHYSTPLTFGAGTKLELKGGGGSGGGGSGGGGSQVQLQQPGAELVRPGASVKLSCKASGYSFTTYWMNWVKQRPGQGLEWIGMIHPSDSETRLNQKFKDKATLTVDKSSSTAYMQLSSPTSEDSAVYYCARSTMIATRAMDYWGQGTSVTVSSTREQKLISEEDGSGIQNPDPAVYQLRDSKSSDKSVCLFTDFDSQTNVSQSKDSDVYITDKCVLDMRSMDFKSNSAVAWSNKSDFACANAFNNSIIPEDTFFPSSDVPCDVKLVEKSFETDTNLNFQNLSVIGFRILLLKVAGFNLLMTLRLWSSRAKRSGSGVKQTLNFDLLKLAGDVESNPGPSRGHMTEYKPTVRLATRDDVPRAVRTLAAAFADYPATRHTVDPDRHIERVTELQELFLTRVGLDIGKVWVADDGAAVAVWTTPESVEAGAVFAEIGPRMAELSGSRLAAQQQMEGLLAPHRPKEPAWFLATVGVSPDHQGKGLGSAVVLPGVEAAERAGVPAFLETSAPRNLPFYERLGFTVTADVEVPEGPRTWCMTRKPGA
modifications: Synthetic Immune Receptor (SIR)
NFAT-GFP ASSAY Positive Cell lines (coculture with L363 cells): (+) | NFAT-GFP ASSAY Positive Cell lines (coculture with U266 cells): U266 (+/−), L363

B6: 041816-C01 (protein)
chain: MALPVTALLLPLALLLHAARPDTIVLTQSPASLAVSLGQRATISCRASESVDSYGNSFMHWYQQKPGQPPKLLIYLASNLESGVPARFSGSGSRTDFTLTIDPVEADDAATYYCQQNNYDPWTFGGGTKLEIKLEGKPIPNPLLGLDSTGSGEDLKNVFPPEVAVFEPSKAEIAHTQKATLVCLATGFYPDHVELSWWVNGKEVHSGVCTDPQPLKEQPALNDSRYCLSSRLRVSATFWQNPRNHFRCQVQFYGLSENDEWTQDRAKPVTQIVSAEAWGRADCGITSASYHQGVLSATILYEILLGKATLYAVLVSALVLMAMVKRKDSRGRAKRSGSGATNFSLLKQAGDVEENPGPTSMDWIWRILFLVGAATGAHSFEEVQLQQSGPELVKPGASVKMSCKASGYTFTSYVMHWVKQKPGQGLEWIGYINPYNDGTKYNEKFKGKATLTSDTSSSTAYMELNSLTSEDSAVYFCARPIYFDNDYFDYWGQGTTLKVSSTREQKLISEEDGSGTPFPSLAPPIMLLVDGKQQMVVVCLVLDVAPPGLDSPIWFSAGNGSALDAFTYGPSPATDGTWTNLAHLSLPSEELASWEPLVCHTGPGAEGHSRSTQPMHLSGEASTARTCPQEPLRGTPGGALWLGVLRLLLFKLLLFDLLLTCSCLCDPAGPLPSPATTTRLRALGSHRLHPATETGGREATSSPRPQPRDRRWGDTPPGRKPGSPVRAKRSGSGVKQTLNFDLLKLAGDVESNPGPSRGHMTEYKPTVRLATRDDVPRAVRTLAAAFADYPATRHTVDPDRHIERVTELQELFLTRVGLDIGKVWVADDGAAVAVWTTPESVEAGAVFAEIGPRMAELSGSRLAAQQQMEGLLAPHRPKEPAWFLATVGVSPDHQGKGLGSAVVLPGVEAAERAGVPAFLETSAPRNLPFYERLGFTVTADVEVPEGPRTWCMTRKPGA
modifications: Polynucleotide encoding a Synthetic Immune Receptor (SIR)
NFAT-GFP ASSAY Positive Cell lines (coculture with L363 cells): (+/−), L363 (+/−) | NFAT-GFP ASSAY Positive Cell lines (coculture with RAJI cells): RAJI (+/−), U266 | NFAT-GFP ASSAY Positive Cell lines (coculture with U266 cells): (+/−), L363 (+/−)
